Measured values from US20140271675A1 (Eli Lilly, published 2014).

Legend:
[1] = biological target: hVEGFR1-Fc (R&D 321-fl 050/cf) (human) (UniProt P17948); experiment: competition ELISA, coated hVEGFR1-Fc, competitor biotin-hPLGF1 2 nM; control Ron antibody 0.206 µg/ml
[2] = biological target: hVEGFR1-Fc (R&D 321-fl 050/cf) (human) (UniProt P17948); experiment: competition ELISA, coated hVEGFR1-Fc, competitor biotin-hPLGF1 2 nM; control Ron antibody 16.667 µg/ml
[3] = biological target: hVEGFR1-Fc (R&D 321-fl 050/cf) (human) (UniProt P17948); experiment: competition ELISA, coated hVEGFR1-Fc, competitor biotin-hPLGF1 4 nM; control Ron antibody 0.0023 µg/ml
[4] = biological target: hVEGFR1-Fc (R&D 321-fl 050/cf) (human) (UniProt P17948); experiment: competition ELISA, coated hVEGFR1-Fc, competitor biotin-hPLGF1 4 nM; control Ron antibody 0.0069 µg/ml
[5] = biological target: hVEGFR1-Fc (R&D 321-fl 050/cf) (human) (UniProt P17948); experiment: competition ELISA, coated hVEGFR1-Fc, competitor biotin-hPLGF1 4 nM; control Ron antibody 5.0000 µg/ml
[6] = biological target: hVEGFR1-Fc (R&D 321-fl 050/cf) (human) (UniProt P17948); experiment: competition ELISA, coated hVEGFR1-Fc, competitor biotin-hVEGFA-165 2 nM; control Ron antibody 1.852 µg/ml
[7] = biological target: hVEGFR1-Fc (R&D 321-fl 050/cf) (human) (UniProt P17948); experiment: competition ELISA, coated hVEGFR1-Fc, competitor biotin-hVEGFA-165 2 nM; control Ron antibody 5.556 µg/ml
[8] = biological target: hVEGFR1-Fc (R&D 321-fl 050/cf) (human) (UniProt P17948); experiment: competition ELISA, coated hVEGFR1-Fc, competitor biotin-hVEGFA-165 2 nM; control Ron antibody 0.1852 µg/ml

Sequence of hVEGFR1-Fc (R&D 321-fl 050/cf) (human) (P17948 27-758): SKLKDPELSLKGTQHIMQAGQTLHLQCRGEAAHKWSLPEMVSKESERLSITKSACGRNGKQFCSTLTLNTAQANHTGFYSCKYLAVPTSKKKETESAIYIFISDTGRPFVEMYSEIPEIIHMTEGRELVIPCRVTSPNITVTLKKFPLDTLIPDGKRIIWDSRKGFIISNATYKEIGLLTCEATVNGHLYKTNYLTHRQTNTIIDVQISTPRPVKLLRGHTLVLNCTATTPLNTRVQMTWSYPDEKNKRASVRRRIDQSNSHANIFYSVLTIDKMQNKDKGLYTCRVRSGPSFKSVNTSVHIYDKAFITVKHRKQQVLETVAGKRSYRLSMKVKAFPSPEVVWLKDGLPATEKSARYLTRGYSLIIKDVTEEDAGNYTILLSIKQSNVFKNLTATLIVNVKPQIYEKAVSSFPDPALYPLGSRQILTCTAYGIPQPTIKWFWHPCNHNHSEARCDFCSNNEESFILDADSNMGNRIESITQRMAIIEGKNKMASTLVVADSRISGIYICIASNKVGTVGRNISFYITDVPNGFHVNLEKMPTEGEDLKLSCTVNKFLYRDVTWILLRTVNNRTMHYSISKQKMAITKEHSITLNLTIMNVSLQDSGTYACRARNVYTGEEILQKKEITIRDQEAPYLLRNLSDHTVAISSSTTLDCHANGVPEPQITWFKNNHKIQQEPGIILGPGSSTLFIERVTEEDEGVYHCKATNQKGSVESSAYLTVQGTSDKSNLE

Substance: control Ron antibody (R&D MAB691)
- OD560 (bound biotinylated PlGF) [1]: 0.315 OD
- OD560 (bound biotinylated PlGF) [2]: 0.304 OD
- OD560 (bound biotinylated PlGF) [3]: 0.359 OD
- OD560 (bound biotinylated PlGF) [4]: 0.37 OD
- OD560 (bound biotinylated PlGF) [5]: 0.407 OD
- OD560 (bound biotinylated VEGF-A) [6]: 0.53 OD
- OD560 (bound biotinylated VEGF-A) [7]: 0.535 OD
- OD560 (bound biotinylated VEGF-A) [8]: 1.46 OD
